One substance from patent US20130195866A1, “METHODS TO INHIBIT NEURODEGENERATION” (priority 2010, published 2013) can be followed below.

The assay has as its target human amyloid β (Aβ) peptides secreted into the medium of Tg2576 neuron cultures (Aβ40, Aβ42 and their oligomers) (human) (UniProt P05067). Kind of assay: cell-based or functional assay.

Sequence of human amyloid β (Aβ) peptides secreted into the medium of Tg2576 neuron cultures (Aβ40, Aβ42 and their oligomers) (human) (P05067 672-713 limits assumed): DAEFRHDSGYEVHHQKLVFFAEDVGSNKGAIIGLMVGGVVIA

Substance “3D6 antibody, a high-titer monoclonal Aβ antibody” came in with a [Ca2+]i of wild-type neurons treated with TgCM depleted with 3D6 (Indo-1) of 98 nM.
